The target in this test is His6–Drp1, full-length Drp1-short isoform. The experiment in a line: co-sedimentation.

Consider “His6–Drp1, full-length Drp1-short isoform (enzyme)”, for which the percent of His6–Drp1 in the pellet (with GMP–PCP and His6–cyclin C) was found to be 34%; the percent of His6–Drp1 in the pellet (with GMP–PCP) came out at 16%.

The record behind these values is publication PMC6589575.
